B1: Synaptotagmin-16 (Homo sapiens), Q17RD7 (parent)
chain: MVLAMASQDVQNFFQPFSSWISRVYEALQQAGDMLSASLVNISKQDSKLSDKLDQDLDNIQIQETYFEDEEQDNDWSQEDANSLFLEVDHFSCCNSDLQDSAQNSSPSLSQHAKDSCSTMSQWPNWASDDRKLPHVLSSIAEEEHHLEKQRSGLQHGFDSQLPGTLETVNGKKQVNSFGDDEELSTSSDSDEEVIKQFEISVSRSQSFRSVTSEKGKQTGLEQKPKFSRSLLTHGEDGTEVSACEDLDGASQRRYSENLSYGEDDHIPAHSQSPCERGDAKHHGTSHQESSVVQSLRRQSTEGSLEMETAFNSRGFEDSYATDSSSMWSPEEQDRTNLQVPSGVSEPISKCGDLDVIFEYRAASQKLTVTIVRAQGLPDKDRSGVNSWQVHVVLLPGKKHRGRTNIQRGPNPVFREKVTFAKLEPRDVAACAVRFRLYAARKMTRERMMGEKLFYLSHLHPEGEMKVTLVLEPRSNISSGGSPLSPSAVSHSDSTSSTQSLSHGGAPELLVGLSYNATTGRLSVEMIKGSHFRNLAVNRAPDTYGKLFLLNSVGQEMSRCKTSIRRGQPNPVYKETFVFQVALFQLSDVTLMISVYNRRTMKRKEMIGWIALGQNSSGEEEQDHWEEMKETKGQQICRWHTLLES
B2: BTB/POZ domain-containing protein KCTD14 (Homo sapiens), Q9BQ13 (parent)
chain: MWQGCAVERPVGRMTSQTPLPQSPRPRRPTMSTVVELNVGGEFHTTTLGTLRKFPGSKLAEMFSSLAKASTDAEGRFFIDRPSTYFRPILDYLRTGQVPTQHIPEVYREAQFYEIKPLVKLLEDMPQIFGEQVSRKQFLLQVPGYSENLELMVRLARAEAITARKSSVLVCLVETEEQDAYYSEVLCFLQDKKMFKSVVKFGPWKAVLDNSDLMHCLEMDIKAQGYKVFSKFYLTYPTKRNEFHFNIYSFTFTWW
B3: Zinc finger protein 786 (Homo sapiens), Q8N393 (parent)
chain: MAEPPRLPLTFEDVAIYFSEQEWQDLEAWQKELYKHVMRSNYETLVSLDDGLPKPELISWIEHGGEPFRKWRESQKSGNIICSSVDMHFDPGFEEQLFWGSQQAMNSGKTKSHFQLDPESQCSFGSFVSFRPDQGITLGSPQRHDARAPPPLACGPSESTLKEGIPGPRNLDLPGLWDVPAWESTQHPWPVCGESCWENNHLVMHQRGHSKDRTRRAWEKFNKRAETQMPWSSPRVQRHFRCGVCGKSFRRKLCLLRHLAAHTGRGPFRNADGEMCFRHELTHPSHRLPQQGEKPAQCTPCGKRSLPVDSTQARRCQHSREGPASWREGRGASSSVHSGQKPGSRLPQEGNSHQEGDTEALQHGAEGPCSCSECGERSPMSARLASPCRAHTGEKPFQCAHCTKRFRLRRLLQVHQHAHGGERPFSCRKCGKGFAKQCKLTEHIRVHSGEKPFRCAKCGRNFRQRGQLLRHQRLHTDEKPFQCPECGLSFRLESMLRAHRLRHGGERPFSCSECGRGFTHQCKLREHLRVHSGERPFQCLKCDKRFRLKGILKAHQHTHSKERPFSCGECGKGFTRQSKLTEHLRVHSGERPFQCPECNRSFRLKGQLLSHQRLHTGERPFQCPECDKRYRVKADMKAHQLLHSGEMPFSCECGKGFVKHSKLIEHIRTHTGEKPFQCPKCDKSFRLKAQLLSHQGLHTGERPFHCPECDKNFRERGHMLRHQRIHRPERPFACGDCGKGFIYKSKLAEHIRVHTKSCPAPNELDIKKRLSQLFAMIEADWS
B4: Ribosome assembly protein METTL17, mitochondrial (Homo sapiens), Q9H7H0 (parent)
chain: MAAALKCLLTLGRWCPGLGVAPQARALAALVPGVTQVDNKSGFLQKRPHRQHPGILKLPHVRLPQALANGAQLLLLGSAGPTMENQVQTLTSYLWSRHLPVEPEELQRRARHLEKKFLENPDLSQTEEKLRGAVLHALRKTTYHWQELSYTEGLSLVYMAARLDGGFAAVSRAFHEIRARNPAFQPQTLMDFGSGTGSVTWAAHSIWGQSLREYMCVDRSAAMLVLAEKLLKGGSESGEPYIPGVFFRQFLPVSPKVQFDVVVSAFSLSELPSKADRTEVVQTLWRKTGHFLVLVENGTKAGHSLLMDARDLVLKGKEKSPLDPRPGFVFAPCPHELPCPQLTNLACSFSQAYHPIPFSWNKKPKEEKFSMVILARGSPEEAHRWPRITQPVLKRPRHVHCHLCCPDGHMQHAVLTARRHGRDLYRCARVSSWGDLLPVLTPSAFPPSTAQDPSES
B5: Glutaredoxin-3 (Homo sapiens), O76003 (parent)
chain: MAAGAAEAAVAAVEEVGSAGQFEELLRLKAKSLLVVHFWAPWAPQCAQMNEVMAELAKELPQVSFVKLEAEGVPEVSEKYEISSVPTFLFFKNSQKIDRLDGAHAPELTKKVQRHASSGSFLPSANEHLKEDLNLRLKKLTHAAPCMLFMKGTPQEPRCGFSKQMVEILHKHNIQFSSFDIFSDEEVRQGLKAYSSWPTYPQLYVSGELIGGLDIIKELEASEELDTICPKAPKLEERLKVLTNKASVMLFMKGNKQEAKCGFSKQILEILNSTGVEYETFDILEDEEVRQGLKAYSNWPTYPQLYVKGELVGGLDIVKELKENGELLPILRGEN
B6: Protein arginine N-methyltransferase 8 (Homo sapiens), Q9NR22 (parent)
chain: MGMKHSSRCLLLRRKMAENAAESTEVNSPPSQPPQPVVPAKPVQCVHHVSTQPSCPGRGKMSKLLNPEEMTSRDYYFDSYAHFGIHEEMLKDEVRTLTYRNSMYHNKHVFKDKVVLDVGSGTGILSMFAAKAGAKKVFGIECSSISDYSEKIIKANHLDNIITIFKGKVEEVELPVEKVDIIISEWMGYCLFYESMLNTVIFARDKWLKPGGLMFPDRAALYVVAIEDRQYKDFKIHWWENVYGFDMTCIRDVAMKEPLVDIVDPKQVVTNACLIKEVDIYTVKTEELSFTSAFCLQIQRNDYVHALVTYFNIEFTKCHKKMGFSTAPDAPYTHWKQTVFYLEDYLTVRRGEEIYGTISMKPNAKNVRDLDFTVDLDFKGQLCETSVSNDYKMR
partner: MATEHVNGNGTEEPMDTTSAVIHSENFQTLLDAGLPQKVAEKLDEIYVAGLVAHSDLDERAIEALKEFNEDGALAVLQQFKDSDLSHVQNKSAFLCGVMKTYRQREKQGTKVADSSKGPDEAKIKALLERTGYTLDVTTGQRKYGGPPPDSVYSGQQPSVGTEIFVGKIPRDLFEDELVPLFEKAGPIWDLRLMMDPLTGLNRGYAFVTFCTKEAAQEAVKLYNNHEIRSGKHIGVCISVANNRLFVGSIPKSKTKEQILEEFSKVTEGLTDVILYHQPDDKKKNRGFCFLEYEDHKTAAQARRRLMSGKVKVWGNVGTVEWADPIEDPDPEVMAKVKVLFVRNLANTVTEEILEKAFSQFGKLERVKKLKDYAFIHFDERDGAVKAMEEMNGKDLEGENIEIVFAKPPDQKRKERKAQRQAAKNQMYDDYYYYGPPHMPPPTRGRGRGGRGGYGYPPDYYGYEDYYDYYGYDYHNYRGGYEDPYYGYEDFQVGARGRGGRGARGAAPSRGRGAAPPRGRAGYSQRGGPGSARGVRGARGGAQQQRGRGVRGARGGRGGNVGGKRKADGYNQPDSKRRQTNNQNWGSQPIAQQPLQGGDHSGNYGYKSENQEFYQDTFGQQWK

Variants of: B1
Details: with praf1_human RABAC1, Q9UI14
Sequence of praf1_human RABAC1, Q9UI14 (Q9UI14 whole entry): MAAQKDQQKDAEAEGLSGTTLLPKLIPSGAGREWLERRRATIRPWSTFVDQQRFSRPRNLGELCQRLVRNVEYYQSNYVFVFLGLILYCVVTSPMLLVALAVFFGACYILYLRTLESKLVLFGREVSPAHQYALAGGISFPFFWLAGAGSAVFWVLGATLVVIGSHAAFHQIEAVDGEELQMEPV

| Variant | effect of a mutation on the interaction |
| --- | --- |
| R441W | with no effect |

Variants of: B1
Details: with rtn4_human RTN4, Q9NQC3
Sequence of rtn4_human RTN4, Q9NQC3 (Q9NQC3 whole entry): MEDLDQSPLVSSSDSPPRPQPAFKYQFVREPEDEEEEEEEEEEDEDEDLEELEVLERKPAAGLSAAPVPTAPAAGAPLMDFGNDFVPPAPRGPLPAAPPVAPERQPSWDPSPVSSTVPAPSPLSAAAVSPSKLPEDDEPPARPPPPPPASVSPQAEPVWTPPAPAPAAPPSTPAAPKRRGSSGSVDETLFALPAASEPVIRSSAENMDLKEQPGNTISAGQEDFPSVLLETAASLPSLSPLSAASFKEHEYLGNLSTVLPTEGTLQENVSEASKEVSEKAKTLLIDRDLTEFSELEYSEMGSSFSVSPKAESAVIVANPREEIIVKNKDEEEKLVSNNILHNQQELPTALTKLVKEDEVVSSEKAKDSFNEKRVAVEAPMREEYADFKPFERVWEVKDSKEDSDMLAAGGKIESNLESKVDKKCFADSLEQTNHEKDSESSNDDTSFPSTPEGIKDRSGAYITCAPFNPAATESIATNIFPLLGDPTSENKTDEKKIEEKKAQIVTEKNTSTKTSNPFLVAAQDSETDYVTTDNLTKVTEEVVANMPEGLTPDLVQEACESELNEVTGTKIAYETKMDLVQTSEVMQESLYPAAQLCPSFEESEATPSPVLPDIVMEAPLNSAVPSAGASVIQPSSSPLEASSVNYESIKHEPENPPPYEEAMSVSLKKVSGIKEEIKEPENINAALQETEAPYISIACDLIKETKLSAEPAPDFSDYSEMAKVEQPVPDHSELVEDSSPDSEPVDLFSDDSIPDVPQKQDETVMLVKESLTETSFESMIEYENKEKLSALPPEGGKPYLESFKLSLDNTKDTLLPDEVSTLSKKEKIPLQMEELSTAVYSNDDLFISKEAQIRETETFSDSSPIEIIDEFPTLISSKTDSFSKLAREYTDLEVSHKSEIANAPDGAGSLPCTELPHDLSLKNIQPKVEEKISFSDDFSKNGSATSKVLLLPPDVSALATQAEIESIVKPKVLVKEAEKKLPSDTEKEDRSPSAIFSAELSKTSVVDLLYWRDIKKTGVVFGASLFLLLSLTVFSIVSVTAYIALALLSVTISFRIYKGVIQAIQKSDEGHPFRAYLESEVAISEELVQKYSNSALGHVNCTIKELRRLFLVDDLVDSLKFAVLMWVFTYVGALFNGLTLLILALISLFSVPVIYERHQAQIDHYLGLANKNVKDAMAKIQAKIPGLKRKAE

| Variant | effect of a mutation on the interaction |
| --- | --- |
| R441W | with no effect |

Variants of: B2
Details: with stk16_human STK16, O75716
Sequence of stk16_human STK16, O75716 (O75716 whole entry): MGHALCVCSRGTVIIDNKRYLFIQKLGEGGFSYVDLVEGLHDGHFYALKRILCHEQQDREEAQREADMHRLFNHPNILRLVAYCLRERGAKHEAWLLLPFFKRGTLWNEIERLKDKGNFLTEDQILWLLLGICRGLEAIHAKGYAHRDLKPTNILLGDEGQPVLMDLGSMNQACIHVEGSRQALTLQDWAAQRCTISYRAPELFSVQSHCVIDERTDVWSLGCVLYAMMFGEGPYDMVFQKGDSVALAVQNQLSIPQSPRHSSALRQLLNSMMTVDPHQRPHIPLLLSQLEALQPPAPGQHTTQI

| Variant | effect of a mutation on the interaction |
| --- | --- |
| V168M | disrupting interaction strength |

Variants of: B3
Details: with kr103_human KRTAP10-3, P60369
Sequence of kr103_human KRTAP10-3, P60369 (P60369 whole entry): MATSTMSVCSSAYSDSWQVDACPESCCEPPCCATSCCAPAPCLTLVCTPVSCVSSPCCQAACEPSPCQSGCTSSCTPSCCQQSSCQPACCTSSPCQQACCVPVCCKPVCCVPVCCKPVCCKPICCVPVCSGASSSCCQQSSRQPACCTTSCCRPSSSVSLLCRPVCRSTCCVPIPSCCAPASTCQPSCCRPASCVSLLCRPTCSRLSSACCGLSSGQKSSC

| Variant | effect of a mutation on the interaction |
| --- | --- |
| V37A | with no effect |

Variants of: B3
Details: with kr103_human KRTAP10-3, P60369
Remark: another data set of the same source

| Variant | effect of a mutation on the interaction |
| --- | --- |
| S112R | with no effect |

Variants of: B4
Details: with sf3b4_human SF3B4, Q15427
Sequence of sf3b4_human SF3B4, Q15427 (Q15427 whole entry): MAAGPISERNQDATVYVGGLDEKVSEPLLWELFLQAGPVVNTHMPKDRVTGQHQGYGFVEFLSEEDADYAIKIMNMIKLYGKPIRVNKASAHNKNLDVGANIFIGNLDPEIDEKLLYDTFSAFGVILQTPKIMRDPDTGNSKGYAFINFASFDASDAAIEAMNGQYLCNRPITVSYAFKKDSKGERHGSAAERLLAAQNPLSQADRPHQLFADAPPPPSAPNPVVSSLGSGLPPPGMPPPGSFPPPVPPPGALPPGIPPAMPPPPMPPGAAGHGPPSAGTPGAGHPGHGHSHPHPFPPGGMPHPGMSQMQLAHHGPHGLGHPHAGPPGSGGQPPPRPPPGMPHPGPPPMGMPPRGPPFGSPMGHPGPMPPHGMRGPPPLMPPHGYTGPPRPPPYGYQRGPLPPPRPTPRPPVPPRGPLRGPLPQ

| Variant | effect of a mutation on the interaction |
| --- | --- |
| R212H | with no effect |

Variants of: B4
Details: with mdfi_human MDFI

| Variant | effect of a mutation on the interaction |
| --- | --- |
| R212H | with no effect |

Variants of: B5
Details: with grn_human GRN

| Variant | effect of a mutation on the interaction |
| --- | --- |
| P145A | with no effect |

Variants of: B5
Details: with cpin1_human CIAPIN1, Q6FI81
Sequence of cpin1_human CIAPIN1, Q6FI81 (Q6FI81 whole entry): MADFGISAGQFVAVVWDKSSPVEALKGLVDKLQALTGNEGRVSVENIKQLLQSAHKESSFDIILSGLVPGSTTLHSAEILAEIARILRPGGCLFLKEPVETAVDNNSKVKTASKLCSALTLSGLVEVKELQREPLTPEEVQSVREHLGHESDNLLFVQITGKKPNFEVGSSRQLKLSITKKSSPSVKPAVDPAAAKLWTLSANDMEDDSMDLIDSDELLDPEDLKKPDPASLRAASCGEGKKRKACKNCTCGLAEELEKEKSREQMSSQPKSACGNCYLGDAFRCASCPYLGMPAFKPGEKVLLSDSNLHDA

| Variant | effect of a mutation on the interaction |
| --- | --- |
| P145A | with no effect |

Variants of: B5
Details: with tmm25_human TMEM25, Q86YD3
Sequence of tmm25_human TMEM25, Q86YD3 (Q86YD3 whole entry): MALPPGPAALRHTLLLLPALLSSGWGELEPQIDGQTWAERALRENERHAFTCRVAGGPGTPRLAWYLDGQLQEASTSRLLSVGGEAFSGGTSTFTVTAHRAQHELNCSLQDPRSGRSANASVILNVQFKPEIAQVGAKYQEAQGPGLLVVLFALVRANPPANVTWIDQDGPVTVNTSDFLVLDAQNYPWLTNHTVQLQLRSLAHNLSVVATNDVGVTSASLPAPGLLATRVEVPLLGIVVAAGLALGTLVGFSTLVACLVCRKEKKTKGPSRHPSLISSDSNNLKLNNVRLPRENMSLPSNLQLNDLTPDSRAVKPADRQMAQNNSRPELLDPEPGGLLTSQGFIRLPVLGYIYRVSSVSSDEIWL

| Variant | effect of a mutation on the interaction |
| --- | --- |
| P145A | with no effect |

Variants of: B6
Details: with hnrpq_human SYNCRIP

| Variant | effect of a mutation on the interaction |
| --- | --- |
| R350S | with no effect |
